Source: patent US7127357 (SALK INSTITUTE FOR BIOLOGICAL STUDIES, dated 2006)
Non-standard residues stand in square brackets, D forms with d. No end group written: not given here. pT = C[C@@H](OP(=O)(O)O)[C@H](N)C(=O)O; pS = N[C@@H](COP(=O)(O)O)C(=O)O

B1: VPRpTPV (Cdc25c-T48), rhodamine-labeled (peptide)
peptide: VPR[pT]PV
modifications: also: tetramethylrhodamine label on an amine
notes: Six-residue peptide derived from human Cdc25c
B2: PPApTPP (Myt1-T412), rhodamine-labeled (peptide)
peptide: PPA[pT]PP
modifications: also: tetramethylrhodamine label on an amine
notes: Six-residue peptide derived from human Myt1
B3: STSpTPR (Myt1-T455), rhodamine-labeled (peptide)
peptide: STS[pT]PR
modifications: also: tetramethylrhodamine label on an amine
notes: as for B2
B4: PPGpSPP (Myt1-S416), rhodamine-labeled (peptide)
peptide: PPG[pS]PP
modifications: also: tetramethylrhodamine label on an amine
notes: as for B2

What follows are binders tested against T1, isolated PPIase domain of human Pin1 (human, UniProt Q13526 50-163) (assay: fluorescence anisotropy, rhodamine-labeled peptide).
T1 construct: range 50-163; also called Pin1 PPIase domain
T1 sequence (Q13526 50-163 limits assumed): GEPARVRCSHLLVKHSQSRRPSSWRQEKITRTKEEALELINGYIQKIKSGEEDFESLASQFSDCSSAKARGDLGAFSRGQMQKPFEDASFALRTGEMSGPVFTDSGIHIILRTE
Method: Binding Analysis. […] Lyophilized peptides were dissolved in 25 mM HEPES-Na^+ (pH 7.5), 100 mM NaCl, 1 mM DTT and stored for short periods of time at −20° C. Peptides were labeled with the amine reactive reagent tetramethylrhodamine-5-(and-6)-isothiocyanate (Molecular Probes, Inc. Eugene, Oreg.) using a 2:1 molar ratio of rhodamine to peptide in 0.1 M sodium bicarbonate (pH 9.0) at ambient temperature for 10 hr. Fluorescence data were collected on a PTI Alphascan spectrofluorimeter (Photon Technology Instruments, Santa Clara, Calif.).

**Q.** Does B1 bind?
**A.** no binding

**Q.** Does B2 bind?
**A.** no binding

**Q.** Does B3 bind?
**A.** no binding

**Q.** Does B4 bind?
**A.** no binding
